Laboratory results as given in article PMC2234471 (The Journal of General Physiology, 2003).

Molecular target: purified recombinant vertebrate CaM ( ("vertebrate"), UniProt P0DP23 1-149)
Experiment: native gel or EMSA

binding result	Binder
binds	AIRAVRILQFRLYKKKFKETLR [IQ2 peptide of KCNQ3 (481–503)]
binds	SIRAVCVMRFLVSKRKFKESLR [IQ2 peptide of KCNQ2 (508–530)]
